Data from patent US20100021384A1 (INSTITUT PASTEUR, published 2010).

What was measured:
[1] = target: T1, GFAP (glial fibrillary acidic protein) from normal human brain (human, UniProt P14136 1-432); assay: competition ELISA (Friguet method) after heating VHH at 75 C for 15 min and cooling at 4 C for 20 min
T1 construct: Purchased protein purified from human brain; coated on ELISA plates and used in solution for the KD determination; also called hGFAP
Description: (§1) The binding affinity of VHHs was determined as described by Friguet et al., 1985. Briefly, various concentrations of GFAP were incubated in solution overnight at 4° C. with a known quantity of VHH until equilibrium was reached. The VHH concentration had been determined by preliminary ELISA calibrations. 100 μl of solution was transferred to a well of a microtiter plate previously coated with GFAP and was incubated for 20 min at 4° C. The plates were washed with PBS-Tween 0.1%. VHHs were detected with rabbit anti-His tag antibodies (eBiosciences, San Diego, Calif.) followed by adding β-galactosidase-conjugated goat anti-rabbit Igs (Biosys, Compiègne, France) and 4-methylumbelliferyl β-D galactoside (Sigma Aldrich, Saint-Quentin Fallavier, France). Fluorescence was read at 460 nm, after excitation at 355 nm. KD was estimated from the slope of the regression curve obtained by plotting the reciprocal of the fraction of bound antibody versus the reciprocal of the molar concentration of antigen.
The heat denaturation of VHH-E9 was adapted to the method described in Olichon et al., 2007. VHHs are re-suspended in PBS/NaCl 300 mM and are heated for 15 minutes at 75° C. then cooled down at 4° C. for 20 minutes. The binding affinity of VHHs was determined by ELISA as described in Example 2 above.

[2] = target: T1, GFAP (glial fibrillary acidic protein) …; assay: competition ELISA in solution (Friguet method), GFAP in solution, GFAP-coated plate
Description: as §1

[3] = target: T2, murine GFAP (in murine brain extracts and mouse brain astrocytes) (murine, UniProt P03995 1-430); assay: Western blot of murine brain extracts
T2 construct: Endogenous intracellular protein; identified on blots by the 46 kDa band size and in tissue by astrocyte labelling; also called 46 Kda band
T2 sequence (P03995 whole entry): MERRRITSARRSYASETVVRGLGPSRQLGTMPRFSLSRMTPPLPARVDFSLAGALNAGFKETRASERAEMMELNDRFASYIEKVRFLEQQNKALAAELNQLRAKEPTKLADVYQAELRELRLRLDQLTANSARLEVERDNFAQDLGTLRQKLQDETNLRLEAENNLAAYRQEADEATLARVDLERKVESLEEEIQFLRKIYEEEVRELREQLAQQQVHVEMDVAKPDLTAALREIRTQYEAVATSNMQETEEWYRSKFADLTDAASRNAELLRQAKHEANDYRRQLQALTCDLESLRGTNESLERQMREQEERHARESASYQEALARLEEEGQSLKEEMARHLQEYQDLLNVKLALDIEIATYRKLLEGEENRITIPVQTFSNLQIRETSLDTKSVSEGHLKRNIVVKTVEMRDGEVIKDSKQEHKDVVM
Description: Murine brain proteins (300 mg) were extracted in a potter with 600 μl of NuPage LDS sample buffer (Invitrogen) and kept for […] at 70° C. An aliquot was diluted 1:10 (v/v) with the same sample buffer then treated at 70° C. for 10 min. Following separation by polyacrylamide gel electrophoresis (PAGE) using NuPAGE Novex 4-12% Bis-tris gel (Invitrogen), semi-dry transfer onto Hybond-C (Amersham) and western blotting were carried out using the Xcell II blot module (Invitrogen). Prior to the immunochemical reaction, membranes were blocked in a 4% skimmed milk solution. […] Finally, peroxidase activity was visualized using a chemiluminescent kit (Amersham).
The specificity of the different VHHs was tested by ELISA and by Western blot. All the VHHs were specific for GFAP by ELISA (FIG. 5) and could detect at least 40 ng of protein.

[4] = target: T1, GFAP (glial fibrillary acidic protein) …; assay: competition ELISA (Friguet method), GFAP

T1 sequence (P14136 whole entry): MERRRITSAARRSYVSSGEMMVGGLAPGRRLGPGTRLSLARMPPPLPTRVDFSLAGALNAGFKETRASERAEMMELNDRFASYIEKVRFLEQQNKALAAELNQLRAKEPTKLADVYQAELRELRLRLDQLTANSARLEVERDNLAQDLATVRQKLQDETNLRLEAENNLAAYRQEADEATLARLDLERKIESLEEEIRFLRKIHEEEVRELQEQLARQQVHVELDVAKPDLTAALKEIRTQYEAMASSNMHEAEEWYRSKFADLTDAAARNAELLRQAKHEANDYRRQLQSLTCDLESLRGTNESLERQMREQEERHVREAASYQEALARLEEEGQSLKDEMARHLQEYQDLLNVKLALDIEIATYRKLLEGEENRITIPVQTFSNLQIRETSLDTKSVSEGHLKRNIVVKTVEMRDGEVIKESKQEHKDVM

Row | Binder | Kd [1] | Kd [2] | binding result [3] | Kd [4] | fold reduction of affinity against native VHH-E9 [4]
1 | VHH-E9 (VHH, Alpaca VHH selected by ribosome display against human GFAP; expressed in E. coli periplasm from pET22 with a His-tag and purified by IMAC; same molecule; also called anti-GFAP VHH-E9; native VHH-E9; not shown: His-tag (His6) from pET22 expression) VHH: DVQLQVSGGGSVQPGGSLRLSCAASGFTFSNYAMYWLRQAPGKGIEWVSRIGPGGSHTEYADSVKGRFTISRDNAKNTLSLQMNSLKPEDTAVYYCAITQQGSGRGQGTQVTVSS | 3.8 nM | 5.6 nM | binds | – | –
2 | VHH-A10 (VHH, Alpaca VHH selected by ribosome display against human GFAP; expressed in E. coli periplasm from pET22 with a His-tag and purified by IMAC; also called anti-GFAP VHH-A10; not shown: His-tag from pET22 expression) VHH: DVQLRASGGGLVQPGGSLRLSCAASGFTFSNYAMYWLRQAPGKGIEWVSRIGPGGSHTEYADSVKGRFTISRDNAKNTLSLQMNSLKPEDTAVYYCAITQQGSGRGQETQVTVSSAAALEHHHHHH | – | 3.1 nM | binds | – | –
3 | VHH-E9 SS-free (VHH, not shown: small tags and cut ends, VHH-E9 in which the disulfide-forming cysteines Cys 22 and Cys 96 were replaced by serine by site-directed mutagenesis; also called cysteine-free derivative of VHH-E9) VHH: DVQLQVSGGGSVQPGGSLRLSSAASGFTFSNYAMYWLRQAPGKGIEWVSRIGPGGSHTEYADSVKGRFTISRDNAKNTLSLQMNSLKPEDTAVYYSAITQQGSGRGQGTQVTVSSAAALEHHHHHH | – | – | – | 12 nM | 2 fold
4 | VHH-E3 (VHH, Alpaca VHH selected by ribosome display against human GFAP; expressed in E. coli periplasm from pET22 with a His-tag and purified by IMAC; also called anti-GFAP VHH-E3; not shown: His-tag from pET22 expression) VHH: DVQLQVSGGGSVQPGGSLRLSCAAPGFTFSNYAMYWLRQAPGKGIEWVSRIGPGGSHTEYADSVKGRFAISRDNAKNTLSLQMNSLKPEDTAAYYCAITQQGSGRGRGTQVTVSS | – | – | binds | – | –
